Where “and” joins values, the source holds several entries; their conditions need not be identical. Identical values can stand only once.
Tests used:
[1] = biological target: F1FO ATP synthase (complex V) of Euglena gracilis mitochondria (Euglena gracilis (endogenous in mitochondria)); assay: native gel or EMSA; BN-PAGE, 3-10% acrylamide gradient, of mitochondria solubilised with DDM 4.0 g/g protein (3.2% w/v), 4 °C, pH 8.4, 100 mM NaCl; Coomassie and in-gel NADH-dehydrogenase and ATPase activity
[2] = biological target: F1FO ATP synthase (complex V) of Euglena gracilis mitochondria (Euglena gracilis (endogenous in mitochondria)); assay: as above; remark: listed apart in the source
[3] = biological target: F1FO ATP synthase (complex V) of Euglena gracilis mitochondria (Euglena gracilis (endogenous in mitochondria)); assay: native gel or EMSA; purified dimeric ATP synthase incubated with DDM at room temperature for 10 min; species assigned by size; kind of gel not told in the legend
[4] = biological target: F1FO ATP synthase (complex V) of Euglena gracilis mitochondria (Euglena gracilis (endogenous in mitochondria)); assay: native gel or EMSA; two-dimensional BN/BN-PAGE of digitonin-solubilised mitochondria; second BN-PAGE with 0.02% DDM in the cathode buffer, which dissociates the supercomplexes; NADH-dehydrogenase activity stain
[5] = biological target: F1FO ATP synthase (complex V) of Euglena gracilis mitochondria (Euglena gracilis (endogenous in mitochondria)); assay: native gel or EMSA; BN-PAGE, 3-10% acrylamide gradient with 0.05% digitonin, of mitochondria solubilised with digitonin 8.0 g/g protein (6.4% w/v; up to 12 g/g), 4 °C; Coomassie and in-gel NADH-dehydrogenase and ATPase activity
[6] = biological target: dimeric ubiquinol:cytochrome c oxidoreductase (complex III, III2) of Euglena gracilis mitochondria (Euglena gracilis (endogenous in mitochondria)); assay: native gel or EMSA; two-dimensional BN/SDS Tricine-PAGE (12%) of digitonin-extracted complexes; subunits told by their electrophoretic profile

Substance | stoichiometry N [1] | stoichiometry N [2] | stoichiometry N [3] | stoichiometry N [4] | stoichiometry N [5] | stoichiometry N [6]
F1FO ATP synthase (complex V) of Euglena gracilis mitochondria | 2 | 4 | 2 | 4 | 2 and 4 | 
cytochrome c oxidase (complex IV) of Euglena gracilis mitochondria |  |  |  |  |  | 1 and 2

Reference: publication PMC8124061
